# Source: the supplement of paper PMC10724198
# ± gives the standard deviation of the averaged measurements.
# What was measured:
# Saccharomyces cerevisiae [1] = experiment: protein stability index of tFT-peptide fusion (C-terminal peptide) (PSI (0-1 scale)); higher = more stable (slower turnover)
# Protocol: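 MPS profiling in S. cerevisiae of the tFT-X12 degron library: putative degron peptides plus stable controls, 12 aa, fused to the C-terminus of a sfGFP-mCherry timer. Cells are FACS-sorted into 8 mCherry/sfGFP bins and deep-sequenced. PSI runs from 0 (unstable) to 1 (stable). Backgrounds are wild type, das1Δ and doa10Δ at 30 °C, and wild type, das1Δ, cdc34-1 and cdc53-1 at 37 °C; 2-3 technical replicates each.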
# Saccharomyces cerevisiae [2] = experiment: as above; settings: genetic background: wild type; temperature: 30 C
# [3] = genetic background: cdc34-1, temperature: 37 C
# [4] = genetic background: cdc53-1, temperature: 37 C
# [5] = genetic background: das1 deletion, temperature: 30 C
# [6] = genetic background: das1 deletion, temperature: 37 C
# [7] = genetic background: doa10 deletion, temperature: 30 C
# [8] = genetic background: wild type, temperature: 30 C
# [9] = genetic background: wild type, temperature: 37 C
# 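Also: PSI is a weighted mean of sequencing reads over stability bins, variants kept only with over 10 reads, mCherry proximal and sfGFP distal, peptide attached via GGGS linker.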
Sequence,protein stability index (Saccharomyces cerevisiae [1]; [3]),protein stability index (Saccharomyces cerevisiae [1]; [4]),protein stability index (Saccharomyces cerevisiae [1]; [5]),protein stability index (Saccharomyces cerevisiae [1]; [6]),protein stability index (Saccharomyces cerevisiae [1]; [7]),protein stability index (Saccharomyces cerevisiae [1]; [8]),protein stability index (Saccharomyces cerevisiae [1]; [9]),protein stability index (Saccharomyces cerevisiae [2])
GLLSLSGLRWFC,0.672 ± 0.051,0.74727 ± 0.00044,0.659 ± 0.021,0.763 ± 0.022,0.163 ± 0.021,0.19 ± 0.035,0.462 ± 0.012,0.276 ± 0.11
GLSWRLVWVVII,0.0421 ± 0.0072,0.0599 ± 0.011,0.132 ± 0.02,0.189 ± 0.0048,0.0916 ± 0.006,0.0531 ± 0.0056,0.0493 ± 0.0093,0.103 ± 0.011
GMNGLFFIAMLG,0.53 ± 0.033,0.645 ± 0.041,0.514 ± 0.018,0.642 ± 0.035,0.195 ± 0.016,0.195 ± 0.029,0.398 ± 0.015,0.362 ± 0.02
GRLVPVILLKLV,0.3011 ± 0.0019,0.471 ± 0.015,0.441 ± 0.031,0.5625 ± 0.00087,0.0719 ± 0.018,0.0651 ± 0.015,0.0817 ± 0.0024,0.099045 ± 4e-05
GRRPVVDFLPCL,0.692 ± 0.045,0.7222 ± 0.004,0.697 ± 0.029,0.745 ± 0.009,0.7146 ± 0.0027,0.719 ± 0.037,0.742 ± 0.023,0.736 ± 0.0074
GSITFFKMVQSG,0.656 ± 0.021,0.748 ± 0.012,0.622 ± 0.021,0.744 ± 0.012,0.376 ± 0.014,0.417 ± 0.028,0.687 ± 0.011,0.469 ± 0.023
GSLPERPLRYVC,0.516 ± 0.035,0.6878 ± 0.004,0.651 ± 0.017,0.7239 ± 0.0021,0.1 ± 0.028,0.0973 ± 0.013,0.148 ± 0.016,0.162 ± 0.01
GSRRYYFTWVYQ,0.454 ± 0.038,0.697 ± 0.013,0.655 ± 0.019,0.722 ± 0.019,0.0716 ± 0.016,0.0885 ± 0.015,0.0876 ± 0.024,0.1178 ± 0.00012
GTEFSNVITYLV,0.713 ± 0.018,0.758 ± 0.018,0.6288 ± 0.003,0.775 ± 0.021,0.34 ± 0.0043,0.389 ± 0.027,0.6103 ± 0.0027,0.493 ± 0.08
GTLVFTYLVLRC,0.0997 ± 0.012,0.0693 ± 0.0078,0.197 ± 0.02,0.252 ± 0.032,0.365 ± 0.027,0.167 ± 0.035,0.229 ± 0.0083,0.314 ± 0.008
GTRAGNPDRQRS,0.678 ± 0.052,0.759 ± 0.011,0.638 ± 0.034,0.714 ± 0.025,0.656 ± 0.021,0.632 ± 0.022,0.706 ± 0.016,0.706 ± 0.013
GVRAGVRRAGVG,0.308 ± 0.019,0.418 ± 0.0075,0.399 ± 0.0055,0.414 ± 0.014,0.3927 ± 0.0033,0.382 ± 0.0068,0.402 ± 0.0045,0.402 ± 0.011
GVRRRQLIWSVC,0.532 ± 0.022,0.644 ± 0.014,0.468 ± 0.024,0.656 ± 0.0066,0.145 ± 0.0088,0.164 ± 0.039,0.28 ± 0.011,0.241 ± 0.092
GVVCWLVVTGFL,0.3865 ± 0.0018,0.48 ± 0.0076,0.286 ± 0.058,0.524 ± 0.0095,0.255 ± 0.0087,0.3 ± 0.019,0.463 ± 0.052,0.429 ± 0.013
GVVVGVLLVCGW,0.268 ± 0.028,0.435 ± 0.0061,0.28 ± 0.037,0.489 ± 0.0051,0.223 ± 0.016,0.265 ± 0.013,0.4614 ± 0.0016,0.36 ± 0.0081
HCNRLIFWYKCT,0.508 ± 0.082,0.745 ± 0.025,0.656 ± 0.052,0.723 ± 0.035,0.189 ± 0.0086,0.224 ± 0.032,0.298 ± 0.0068,0.288 ± 0.0074
HDLRRRVVSVMV,0.48 ± 0.046,0.4601 ± 0.0032,0.337 ± 0.025,0.55 ± 0.022,0.258 ± 0.013,0.297 ± 0.03,0.47615 ± 0.00044,0.372 ± 0.061

Sequence,protein stability index (Saccharomyces cerevisiae [1]; [3]),protein stability index (Saccharomyces cerevisiae [1]; [4]),protein stability index (Saccharomyces cerevisiae [1]; [5]),protein stability index (Saccharomyces cerevisiae [1]; [6]),protein stability index (Saccharomyces cerevisiae [1]; [7]),protein stability index (Saccharomyces cerevisiae [1]; [8]),protein stability index (Saccharomyces cerevisiae [1]; [9]),protein stability index (Saccharomyces cerevisiae [2])
HFLRYCSWFGLL,0.656 ± 0.032,0.745 ± 0.015,0.6558 ± 0.0024,0.781 ± 0.013,0.142 ± 0.014,0.171 ± 0.017,0.353 ± 0.0095,0.15 ± 0.0097
HNLIRKHAKESS,0.63 ± 0.083,0.702 ± 0.0032,0.641 ± 0.034,0.699 ± 0.015,0.171 ± 0.036,0.249 ± 0.016,0.459 ± 0.054,0.394 ± 0.085
HPLYWRCVVVLN,0.213 ± 0.034,0.243 ± 0.024,0.211 ± 0.026,0.3733 ± 0.00077,0.073 ± 0.012,0.066 ± 0.031,0.0862 ± 0.015,0.15 ± 0.044
HSPPVPFPPPTS,0.647 ± 0.068,0.733 ± 0.035,0.651 ± 0.034,0.72 ± 0.0074,0.688 ± 0.012,0.672 ± 0.017,0.694 ± 0.024,0.358 ± 0.033
HVRLRFQPVLFV,0.527 ± 0.027,0.5455 ± 0.0014,0.404 ± 0.029,0.5487 ± 0.0044,0.356 ± 0.01,0.382 ± 0.026,0.5139 ± 0.0024,0.462 ± 0.0049
HVSVIRRGICCA,0.266 ± 0.014,0.2978 ± 0.0018,0.271 ± 0.026,0.398 ± 0.0092,0.233 ± 0.0093,0.278 ± 0.015,0.3675 ± 0.0027,0.374 ± 0.034
ICQLLKFPLFWC,0.542 ± 0.025,0.567 ± 0.024,0.521 ± 0.024,0.7207 ± 0.0058,0.311 ± 0.019,0.288 ± 0.026,0.4916 ± 0.0032,0.113 ± 0.034
ICSRCLVTVLSC,0.4098 ± 0.0039,0.445 ± 0.0063,0.296 ± 0.037,0.514 ± 0.0071,0.198 ± 0.0024,0.217 ± 0.039,0.367 ± 0.015,0.311 ± 0.017
ICWVSLYFSMLV,0.457 ± 0.018,0.479 ± 0.019,0.373 ± 0.018,0.5069 ± 0.0045,0.3348 ± 0.00038,0.333 ± 0.025,0.464 ± 0.028,0.406 ± 0.084
IFAWPFSATIPW,0.74 ± 0.022,0.81258 ± 0.00076,0.696 ± 0.012,0.80758 ± 0.00033,0.706 ± 0.0086,0.7 ± 0.011,0.788 ± 0.032,0.784 ± 0.021
IFFYPFLIFCFV,0.251 ± 0.022,0.281 ± 0.026,0.267 ± 0.027,0.396 ± 0.019,0.2722 ± 0.00072,0.238 ± 0.032,0.332 ± 0.012,0.325 ± 0.018
IFVLLSYYPLFV,0.263 ± 0.016,0.279 ± 0.012,0.265 ± 0.019,0.422 ± 0.012,0.288 ± 0.016,0.243 ± 0.027,0.391 ± 0.0059,0.338 ± 0.018
IGSARIKLLCYH,0.6024 ± 0.0044,0.705 ± 0.014,0.592 ± 0.017,0.7434 ± 0.0024,0.124 ± 0.017,0.165 ± 0.027,0.331 ± 0.031,0.213 ± 0.0061
ILHRRCGLLLQI,0.47 ± 0.04,0.506 ± 0.0066,0.447 ± 0.015,0.538 ± 0.017,0.273 ± 0.0094,0.278 ± 0.025,0.4161 ± 0.0032,0.343 ± 0.016
ISVSVVFFVLRF,0.27578 ± 0.00014,0.369 ± 0.031,0.265 ± 0.041,0.429 ± 0.015,0.294 ± 0.017,0.279 ± 0.019,0.411 ± 0.011,0.3965 ± 0.0021
IYPPVSVTNLLV,0.6646 ± 0.0022,0.723 ± 0.0079,0.646 ± 0.036,0.723 ± 0.014,0.227 ± 0.029,0.255 ± 0.032,0.461 ± 0.0062,0.357 ± 0.1
